According to IntAct's records for PubMed 23615222:

B1: Thioredoxin H1 (Arabidopsis thaliana (Mouse-ear cress)), P29448 (parent)
chain: MASEEGQVIACHTVETWNEQLQKANESKTLVVVDFTASWCGPCRFIAPFFADLAKKLPNVLFLKVDTDELKSVASDWAIQAMPTFMFLKEGKILDKVVGAKKDELQSTIAKHLA

Variants of: B1
Conditions: with cdpkl_arath CPK21, Q9ZSA2
Chain of cdpkl_arath CPK21, Q9ZSA2 (Q9ZSA2 whole entry): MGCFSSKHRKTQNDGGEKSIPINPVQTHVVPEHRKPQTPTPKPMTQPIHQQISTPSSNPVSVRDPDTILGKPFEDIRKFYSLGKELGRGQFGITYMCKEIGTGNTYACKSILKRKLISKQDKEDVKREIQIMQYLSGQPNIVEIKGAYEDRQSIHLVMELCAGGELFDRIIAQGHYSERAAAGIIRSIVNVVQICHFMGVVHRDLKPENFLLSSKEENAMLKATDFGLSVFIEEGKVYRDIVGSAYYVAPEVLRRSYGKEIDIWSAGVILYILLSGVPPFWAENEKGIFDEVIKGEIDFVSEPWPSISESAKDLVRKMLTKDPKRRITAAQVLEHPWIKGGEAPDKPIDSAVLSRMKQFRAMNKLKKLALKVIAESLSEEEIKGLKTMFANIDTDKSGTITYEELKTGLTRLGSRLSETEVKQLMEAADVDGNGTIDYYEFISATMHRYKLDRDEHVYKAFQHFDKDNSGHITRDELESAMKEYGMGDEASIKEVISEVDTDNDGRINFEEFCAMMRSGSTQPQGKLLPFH

Variant	effect of a mutation on the interaction
C43S	increasing interaction
